The target in assay [1] is T1, purified human glycophorin A protein (Sigma, cat # G5017) (human, UniProt P02724 20-150).
T1 construct: mature; also called Sigma hGPA; Sigma GPA
T1 sequence (looked up): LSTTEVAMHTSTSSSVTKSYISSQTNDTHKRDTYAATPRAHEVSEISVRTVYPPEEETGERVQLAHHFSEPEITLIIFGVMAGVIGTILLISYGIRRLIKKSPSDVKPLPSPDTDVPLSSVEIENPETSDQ
In words: ELISA, purified IgG.
Experimental: The “Sigma GPA” is a crude preparation of human GPA extracted from human red blood cells and is therefore representative of the highly glycosylated form of the native protein.
EC 50 values were determined from a dilution curve of the antibody. Sigma GPA is partially purified GPA extracted from human red blood cells and purchased from Sigma Chemical Company (cat # G5017), asialo hGPA is human GPA that was desialylated and ECD is the recombinantly expressed ectodomain which is the extracellular portion of GPA.

In assay [2] the target is T2, human glycophorin A in the red blood cell membrane (human, UniProt P02724 20-150).
T2 construct: whole, on cells; used for intact RBC, isolated RBC membranes and transfected cells; the assay field tells which; also called GPA; hGPA
T2 sequence (looked up): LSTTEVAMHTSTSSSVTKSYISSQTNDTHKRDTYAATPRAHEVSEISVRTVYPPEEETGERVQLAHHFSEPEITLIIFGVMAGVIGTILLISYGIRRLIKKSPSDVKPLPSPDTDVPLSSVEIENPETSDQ
In words: FACS, hu RBC.

The target in assay [3] is T3, recombinant human GPA ectodomain (human, UniProt P02724 20-91).
T3 construct: also called recombinant hGPA ECD; recGPA
T3 sequence: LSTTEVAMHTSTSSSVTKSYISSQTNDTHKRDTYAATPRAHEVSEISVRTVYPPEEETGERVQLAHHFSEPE
In words: SPR, IgG; SPR, IgG form, recombinant human GPA ectodomain.

The target in a further assay is T4, dog red blood cells (dog).
T4 construct: also called dog RBC
In words: FACS, dog RBC.

Assay [4] concerns the target T5, Cynomolgus monkey glycophorin A on Cynomolgus monkey red blood cells (Cynomolgus monkey).
T5 construct: whole, on cells; also called Cyno RBC; Cyno GPA
In words: FACS, Cyno RBC.

Assay [5] concerns the target T1, purified human glycophorin A protein …. In words: ELISA, hGPA.
Experimental: (§1) Hybridomas were generated from the spleen cells of these mice and these hybriomas were screened first by fluorescence activated cell sorting (FACS) against isolated human and monkey (Cynomolgus monkey and Rhesus monkey) red blood cells (RBC) and then by ELISA against purified human glycophorin A protein (GPA). Isolated RBC were prepared from whole blood from normal human, cynomolgus monkey, and beagle dog, were anticoagulant with sodium heparin (Bioreclamation). 2-3 mL of whole blood was loaded gently on the top of 3 mL Ficoll Plus (Sigma Aldrich) then centrifuged at 500 g for 20 min at room temperature (RT). The RBC pellets were washed 3 times with 10 mL of PBS, and centrifuge 400 g for 10 min at RT. RBC pellets were re-suspended in PBS at the same total volume as the original blood volume to achieve the same RBC cell density as in whole blood and stored at 4° C. Purified human glycophorin A protein was obtained from Sigma Aldrich and coated on ELISA plates at 2 ug/ml. Binding of antibodies to human GPA was detected using appropriate secondary antibodies using methods well known in the art.
Assay [6] shares this target. In words: ELISA, native hGPA.
The target of assay [7] is T2, human glycophorin A in the red blood …. In words: ELISA, human RBC membranes.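 Note: antibodies bound to isolated human red blood cell membrane ghosts coated on 96-well plates, tested 1.5 h at room temperature, bound antibody quantified with a detection antibody.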
Experimental: In order to evaluate binding of antibodies to GPA in the native context of the red blood cell membrane we made use of isolated red blood cell membranes, also called red blood cells ghosts. These membranes are prepared by first isolating red blood cells from citrated whole blood. Citrated whole blood is layered on to Ficol and centrifuged at low speed for 20 minutes to pellet the red blood cells. The supernatant containing plasma and other blood cells is discarded and the red blood cell pellet is subsequently washed 3 times in 10 cell volumes of phosphate buffered saline (PBS). A 10 ml pellet of purified red blood cells is resuspended in 30 ml of cold low osmorality 20 mM phosphate buffer (pH7.4) and incubated for 30 mins to break open the RBC. After Centrifugation at 10,000 rpm for 30 min at 5° C. the hemoglobin containing supernatant is discarded. To the membrane pellet another 30 ml of 20 mM phosphate buffer is added and the sample centrifuged again at 10,000 rpm for 30 min at 5° C. to pellet the membrane fraction. This wash and centrifugation step is repeated another 4 times. The red blood cell membranes are then resuspended in 20 mL of PBS to achieve an equivalent of approximately 2.5E9 cells/mL and stored frozen at −20° C. Binding of antibodies to RBC ghost can be measured by ELISA in which the RBC ghost suspension (5×10⁶ in 100 ul PBS) was added to each well of flat bottom 96-well ELISA microtiter plates (2HB, Immunolon) and the plates incubated overnight at 4° C. The plates were blocked with Starting blocking buffer (Thermo Fisher) for 2 hours at room temperature (RT). Antibodies or other test molecules were added to each well and incubated for 1.5 hours at RT. After 4 washes 100 ul of an appropriate detection antibody was added to each well and incubated for 1 hour at RT. After 4 washes the detection antibody was measured using appropriate detection reagents.
For assay [8] the target is unchanged. In words: SPR single cycle kinetics, human RBC membranes on L1 sensor; single cycle kinetics, FIG. 6.
Experimental: Kinetic analysis of the antibody binding to human red blood cell membranes was also performed using surface plasmon resonance (SPR) using a Biacore instrument. In this assay membranes prepared from human red blood cells were attached to a L1 sensor matrix and antibodies were flowed over the RBC membranes.
The target of assay [9] is T3, recombinant human GPA ectodomain. In words: ELISA, rec hGPA ectodomain.

Experimental for dog red blood cells: as §1

B1: 7G4E9/A8 (antibody, V domains shown)
VH: QVQLKESGPGLVAPSQSLSITCTVSGFSLTRFGISWVRQPPGKGLEWMGVIWGDGSTDYHSALISRLSITKDNSKSQVFFRLNSLQSDDSATYYCARSFGMDYWGQGTSVTVSS
VL: NIMMTQSPSSLAVSAGEKVTMSCKSSQSILNSSNQKNYLAWYQQKPGQSPKLLIYWASTRESGVPDRFTGSGSGTDFTLTISSVQAEDLAVYYCHQYFSSRTFGGGTKLEIK
notes: as m8
Take B1: the response in [1] was half-maximal at 0.33 nM (EC50). For the same molecule, the FACS signal in [2] is 2830 relative flourescence units. For the same molecule, in [3], the Kd came out at 5.92 nM, the off-rate (koff) came to 0.00046 s⁻¹, the kon was 77700 M⁻¹ s⁻¹ and the t½ is 25.1 min. For the same molecule, in the assay with dog red blood cells, the FACS signal is 0.98 relative flourescence units. In addition, the FACS signal in assay [4] is 8 relative flourescence units. Also, it took 0.071 nM to reach a half-maximal effect in [5] (EC50).

B2: TPP-4935 (Fab, V domains shown)
VH: EVQLVQSGAEVKKPGASVKVSCKASGYTFTTYTIHWVRQAPGQGLEWIGYINPSSDYTRYNPKFKDRVTLTTDKSTSTAYMELRSLRSDDTAVYYCQTGTRDYWGQGTTVTVSS
VL: DIQLTQSPSFLSASVGDRVTITCSAASSVSYIYWFQQKPGKAPKLLIYSTSTLPSGVPSRFSGSGSGTEYTLTISSLQPEDFATYYCHQRNSFPFTFGQGTKLEIKR
notes: also called Parental; hu6C12-24 parental Fab
For B2, the “binding by ELISA relative to parental” value in assay [6] was determined as 1; in assay [7], 0.99. Moreover, in assay [8], the Kd was 130 nM.

B3: TPP-5341 (Fab, V domains shown)
VH: EVQLVQSGAEVKKPGASVKVSCKASGYTFTTYTIHWVRQAPGQGLEWIGYINPSSDYTRYNPKFKDRVTLTTDKSTSTAYMELRSLRSDDTAVYYCQTGTRDYWGQGTTVTVSS
VL: DIQLTQSPSFLSASVGDRVTITCSASSSVSYIYWFQQKPGKAPKLLIYSTSTLPSGVPSRFSGSGSGTEYTLTISSLQPEDFATYYCHQRNSFPFTFGQGTKLEIKR
notes: also called VL: (A26S)
For the molecule B3, the entries for the “binding by ELISA relative to parental” value in assay [6], in [7] and in [9] were 1.03, 0.82 and 1.19, respectively. The same molecule came in with a Kd in assay [8] of 34 nM.

B4: TPP-5340 (Fab, V domains shown)
VH: EVQLVQSGAEVKKPGASVKVSCKASGYTFTTYTIHWVRQAPGQGLEWIGYINPSSDYTRYNPKFKDRVTLTTDKSTSTAYMELRSLRSDDTAVYYCQTGTRDYWGQGTTVTVSS
VL: DIQLTQSPSFLSASVGDRVTITCRAASSVSYIYWFQQKPGKAPKLLIYSTSTLPSGVPSRFSGSGSGTEYTLTISSLQPEDFATYYCHQRNSFPFTFGQGTKLEIKR
notes: also called VL: (S24R)
In the case of B4, the “binding by ELISA relative to parental” value turned out to be 1.17 in assay [6], 0.9 in [7] and 1.23 in assay [9]. The molecule also showed a Kd in assay [8] of 25 nM.

The values above are taken from patent publication US20190359687A1 (Bayer, published 2019).
